Experimental findings from article PMC10290953, “A novel ELP1 mutation impairs the function of the Elongator complex and causes a severe neurodevelopmental phenotype” (Journal of Human Genetics, 2023) are described below.

Data set [1] deals with ELP1 (wild type);ELP2;ELP3 (Homo sapiens;Homo sapiens;Homo sapiens). The data set is described as follows: MST. Particulars: none (in vitro transcribed); MST: 14 nM Cy5-tRNA, ELP123 from 1.5 uM in serial dilution, 20 mM HEPES pH 7.5, 100 mM NaCl, 5 mM DTT, 0.05% Tween 20; incubated 30 min at 4 C, measured at ….
Data set [2] relates to ELP1 K815T;ELP2;ELP3 (Homo sapiens;Homo sapiens;Homo sapiens). Put plainly: MST. The conditions noted are these: curve did not reach plateau; authors state actual affinity is likely lower; none (in vitro transcribed); MST: 14 nM Cy5-tRNA, ELP123 from 1.5 uM in serial dilution, 20 mM HEPES pH 7.5, 100 mM NaCl, 5 mM DTT, 0.05% Tween 20; incubated 30 min at 4 C, measured at ….
Data set [3] deals with the molecule itself. Put plainly: SEC; purified ELP1_(715-1332) proteins on a S200 10/300 increase gel filtration column with calibration standards; fractions on 12% SDS-PAGE, Coomassie.

As to tRNAGlnUUG, the Kd was found to be 50 nM in data set [1] and 150 nM in data set [2].

B1: human ELP1 N-terminal truncation, residues 715-1332 (ELP1_(715-1332)) (domain or fragment, UniProt O95163 715-1332, looked up)
chain: NLEVVHHRALVLAQIRKWLDKLMFKEAFECMRKLRINLNLIYDHNPKVFLGNVETFIKQIDSVNHINLFFTELKEEDVTKTMYPAPVTSSVYLSRDPDGNKIDLVCDAMRAVMESINPHKYCLSILTSHVKKTTPELEIVLQKVHELQGNAPSDPDAVSAEEALKYLLHLVDVNELYDHSLGTYDFDLVLMVAEKSQKDPKEYLPFLNTLKKMETNYQRFTIDKYLKRYEKAIGHLSKCGPEYFPECLNLIKDKNLYNEALKLYSPSSQQYQDISIAYGEHLMQEHMYEPAGLMFARCGAHEKALSAFLTCGNWKQALCVAAQLNFTKDQLVGLGRTLAGKLVEQRKHIDAAMVLEECAQDYEEAVLLLLEGAAWEEALRLVYKYNRLDIIETNVKPSILEAQKNYMAFLDSQTATFSRHKKRLLVVRELKEQAQQAGLDDEVPHGQESDLFSETSSVVSGSEMSGKYSHSNSRISARSSKNRRKAERKKHSLKEGSPLEDLALLEALSEVVQNTENLKDEVYHILKVLFLFEFDEQGRELQKAFEDTLQLMERSLPEIWTLTYQQNSATPVLGPNSTANSIMASYQQQKTSVPVLDAELFIPPKINRRTQWKLSLLD
notes: ELP1, Homo sapiens, UniProt O95163, amino acids 715 to 1332; cloned with NcoI and XhoI into pETM11; also called ELP1CT; ELP1 C-terminal construct; source: E. coli BL21 pRARE, purified (NiNTA, S200 gel filtration)
As for B1, the binding result in data set [3] was “binds”.

B2: human ELP1_(715-1332)K815T (domain or fragment, UniProt O95163 715-1332, looked up)
chain: NLEVVHHRALVLAQIRKWLDKLMFKEAFECMRKLRINLNLIYDHNPKVFLGNVETFIKQIDSVNHINLFFTELKEEDVTKTMYPAPVTSSVYLSRDPDGNTIDLVCDAMRAVMESINPHKYCLSILTSHVKKTTPELEIVLQKVHELQGNAPSDPDAVSAEEALKYLLHLVDVNELYDHSLGTYDFDLVLMVAEKSQKDPKEYLPFLNTLKKMETNYQRFTIDKYLKRYEKAIGHLSKCGPEYFPECLNLIKDKNLYNEALKLYSPSSQQYQDISIAYGEHLMQEHMYEPAGLMFARCGAHEKALSAFLTCGNWKQALCVAAQLNFTKDQLVGLGRTLAGKLVEQRKHIDAAMVLEECAQDYEEAVLLLLEGAAWEEALRLVYKYNRLDIIETNVKPSILEAQKNYMAFLDSQTATFSRHKKRLLVVRELKEQAQQAGLDDEVPHGQESDLFSETSSVVSGSEMSGKYSHSNSRISARSSKNRRKAERKKHSLKEGSPLEDLALLEALSEVVQNTENLKDEVYHILKVLFLFEFDEQGRELQKAFEDTLQLMERSLPEIWTLTYQQNSATPVLGPNSTANSIMASYQQQKTSVPVLDAELFIPPKINRRTQWKLSLLD
notes: ELP1, Homo sapiens, UniProt O95163, amino acids 715 to 1332, with the patient variant p.Lys815Thr; Patient-derived variant (c.2444A>C; p.Lys815Thr); PDB 5CQR is the wild-type parent; also called ELP1K815T C-terminal construct; source: E. coli BL21 pRARE, purified (NiNTA, S200 gel filtration)
Turning to B2, in data set [3], the binding result is “binds”.
